In the nanobody polyreactivity screen of Harvey et al. (2022):

Assay: yeast display, Sf9 membrane polyspecificity reagent, FACS + sequencing; frameworks hold sequencing errors
Procedure, shortened: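 Sorting gates, low and high (top ~1%), were placed on anti-HA fluorescence to track expression and on streptavidin fluorescence to track reagent binding. A clone's polyreactivity label is taken from the gate it came out of. The reagent was 10% biotinylated, detergent-solubilized Sf9 membrane, applied for 1 hour at 4 °C to galactose-induced yeast display cells.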

Row | Sequence | polyreactivity (PSR sort gate)
1 | QVHLVESGGGLVQAGGSLRLSCAASGFTCGYNAMGWYRQAPGKETELVATICGGGRTKYADSVKGRFTLSRDNAKNTVYLQMNSLKPEDTAVYYCNVVQTYYRGSYIYIKYGYWGQGTQVTVSS | high polyreactivity
2 | QVQLVESGGGLVQAGGSLRLSCAASGSIFSSNTMGWYRPAPGKERELVAAITSGGGTYYADSVKGRFTISRDNAKNTVYLQMNSLKPEDTAVYYCAAQRVYKSSPSYDYWGQGTQVTVSS | low polyreactivity
3 | QVQLVESGGGLVQAGGSLRLSCAASGRTFGYYGMGWYRQAPGKERELVAAITGSGGSTYYADSVKGRFTISRDNAKNTVYLQMNSLKPEDTAVYYCAATYLSRWTLYDYWGQGTQVTVSS | high polyreactivity
4 | QVQLVESGGGLVQAGGSLRLSCAASGSTFRYYAMGWYRQAPGKERQLVAAISYRGGSTKYADSVKGRFTISRDNAKNTVYLQMNSLKPEDTAVYYCAADSYYDSKRYYWGQGTQVTVSS | high polyreactivity
5 | QVQLVESGGGLVQAGGSLRLSCAASGFTFWGNAMGWYRQAPGKERELVAAISRSGGRTYYADSVKGRFTISRDNAKNTVYLQMNSLKPEDTAVYYCAAGSSHHFDYEGGYWGQGTQVTVSS | low polyreactivity
6 | QVQLVESGGGLVQAGGSLRLSCAASGSTFGWYTMGWYRQAPGKERELVATISYGGGITNYADSVKGRFTISRDNAKNTVYLQMNSLKPEDTAVYYCAARGDGVTNPFGYWGQGTQVTVSS | high polyreactivity
7 | QVQLVESGGGLVQAGGSLRLSCAASGRSFSYAMGWYRQAPGKERELVAAISYGGGGTYYADSVKGRFTISRDNAKNTVYLQMNSLKPEDTAVYYCNARQYRPWYPPYGYDYWGQGTQVTVSS | low polyreactivity
8 | PVQLVESGGGLVQAGGSLRLSCAASGSTFRRNVMGWYRQAPGKEREFVAAISYRTGSTYYADSVKGRFTISRDNAKNTVYLQMNSLKPEDTAVYYCAASSQWVGYYYWGQGTQVTVSS | high polyreactivity
9 | QVQLVESGGGLVQAGGSLRLSCAASGRTFQPYAMGWYRQAPGKERELVASISRSGGRTYYADSVKGRFTISRDNAKNTVYLQMNSLKPEDTAVYYCAADIPYTRSIKYYYWGQGTQVTVSS | high polyreactivity
10 | QVQLVESGGGLVQAGGSLGLSCAASGSIFEPYVMGWYRPAPGKERELVAAISESGDTTYYADSVKGRFTISRDNAKNTVYLQRNSLKPEDTAVYYCNAEDPSIDGWWRVGEYDYWGQGTQVTVSS | low polyreactivity
11 | QVQLVESGGGLVQAGGSLRLSCAASGRTFNIYAMGWYRQAPGKERELVAAITWRSGSTYYADSVKGRFTISRDNAKNTVYLQMNSLKPEDTAVYYCAAEQWSSVPEFDYWGQGSQVTVSS | high polyreactivity
12 | QVQLVESGGGLVQAGGSLRLSCAASGSTFDVYAMGWYRQGPGKERELVATISNYGGDTYYADSVKGRFTISRDNAENTVYLQMNTLKPEDTAVYYCNAYLRFVDVSLDYQLLLEHDFWGQGTQVTVSS | low polyreactivity
13 | QVQLVESGGGLVQAGGSLRLSCAASGRIFRWYAMGWYRQAPGKERELVAAISWSGGRTYYADSVKGRFTISRDNAKNTVYFQMNSLKPEDTAVYYCAAEGAIPRYYIGGVDYWGQGTQVTVSS | high polyreactivity
14 | QVQLVESGVGLVQAGGSVRLSCAASGFTFGYYAMGWYRQAPGKERELVASISSVDNTYYADSVKGRFTISRDNAKNTVYLQMNSLKPEDTAVYYCAARYRDYFVRGGYWGQGTQVTVSS | high polyreactivity
15 | QVQLVESGGGLVQAGGILRLSCSASGYISKVYVMGWYRQAPGKERELVAAITNGGRTNYADSVKGRFTISRDNAKNTVYLQMNSLKPEDTAVYYCAARPRWHIRYNYWGQGTQVTVSS | high polyreactivity
16 | QVQLVESGGGLVQAGGSLRLSCAASGSIFLRYAMGWYRQAPGKERELVAGITSGGSTNYADSVKGRFTISRDNAKNCVYLQMNSLKPEDTAVYYCNKDLPDWGHEWNGDSWGQGTQVTVSS | low polyreactivity
17 | QVQLVESGGGLVQAGGSLRLSCAASGSTFYYYTMGWYRQAPGKERELVAVISRDGRTNYADSVKGRFTISRDNAKNTVYVQMNSLKPEDTAVYYCNADYYWNGVYHYDYWGQGTQVTVSS | low polyreactivity
18 | QVQLVESGGGLVQAGGSLRLSCAASGRTFYRYTMGWYRQAPGTERELVAAISWSGGSTYYADSVKGRFTSSRDNAKNTVYLQMNSLKPEDTAVYYCAKATYWLYVQWYTYGYWGQGTQVTVSS | high polyreactivity
19 | QVQLVESLGGLVQAGGRLRLSSAASGLIFPRNAMGWYRQAPGKERELVAVISRSGTTTYYADSVKGRFTISRDNAKKTVYFQMNSLIPEDTAVYYCASAPSHVYRARFYYWGQGTQVTVSS | high polyreactivity
20 | QVQLVESGGGLVQAGASLRLSCAASGSTFLQNAMGWYRQAPGKVRELVAAITRSGGSTNYADSVKGRFKISRDNAKNTVYLQKNSLKPEDTAVYYCPAGGRRYDDDYWGQGTQVTVSS | high polyreactivity
21 | QVQLPESGGGLLQAGGGLRLSCAASGSITSTGYMGWYRPAPGKEREPVAAIAAGTTTYYADSVKARFTISRDNAKNTVYLQMNCLRPEDTAVYYCAVFTDNRLAFLYWGQGTQVTVSS | low polyreactivity
22 | QVQLVESGGGLVQAGGSLRLSCAASGRIFGVYAMGWYRQAPGKERELVATIRSSGTRTNYADSVKGRFTISRDNAKNTVYLQMNSLKPEDTAVYYCAAGGRPYKLDFTRSDYWGQGTQVTVSS | low polyreactivity
